Reference: patent US20250092124A1 (YUNNAN BAIYAO GROUP, published 2025)

T1: GDF15-HIS (ACROBiosystems, CAT #: GD5-H5149) (human, UniProt Q99988 197-308)
T1 construct: Bought protein; also called GDF15 (ACROBiosystems, GD5-H5149); human GDF15; not shown: His tag
T1 sequence (looked up): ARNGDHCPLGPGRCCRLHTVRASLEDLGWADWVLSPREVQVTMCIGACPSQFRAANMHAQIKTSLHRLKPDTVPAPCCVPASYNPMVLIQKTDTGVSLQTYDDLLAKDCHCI

T2: GDF15-mFC protein (human; mouse, UniProt Q99988 197-308)
T2 construct: extracellular domain;domain: IgG2a-FC; also called GDF15-mFc fusion protein
T2 sequence (looked up): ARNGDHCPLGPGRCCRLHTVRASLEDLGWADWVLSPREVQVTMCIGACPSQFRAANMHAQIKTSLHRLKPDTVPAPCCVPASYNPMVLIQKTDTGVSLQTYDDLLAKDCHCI

T3: cynoGDF15-mFC (monkey (cyno); mouse, UniProt G7PWZ3 197-308)
T3 construct: also called monkey GDF15 (cynoGDF15)
T3 sequence (looked up): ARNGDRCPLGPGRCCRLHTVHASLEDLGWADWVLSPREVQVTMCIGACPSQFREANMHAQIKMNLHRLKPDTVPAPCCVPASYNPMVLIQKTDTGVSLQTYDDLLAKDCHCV


Legend:
[1] = molecular target: T1, GDF15-HIS (ACROBiosystems, CAT #: …); assay: ELISA in stability test, antibody after 40 °C for 2 weeks; coated antigen not named
Description: (§1) An appropriate amount of each antibody was taken and adjusted to 10 mg/mL, and was placed at 40° C. for 1 and 2 weeks. Protein aggregation was detected using SEC-HPLC, and protein binding activity change was detected by ELISA.

GDF15-mFC protein [2] = molecular target: T2, GDF15-mFC protein; assay: blocking ELISA as in Example 4, GFRAL-hIgG1 Fc coated (competitor), GDF15-mFC mixed with antibody
Description: A fusion protein comprising the extracellular region of GFRAL protein (Genbank accession number NM_207410.2) and human IgG1-FC (Genbank accession number CAC20454.1) was diluted to […] with coating solution, followed by adding to ELISA plate at 50 μl/well and incubating at 4° C. overnight. The solution in the wells was discarded and the plate was washed 3 times with washing solution, each time for 3-5 minutes, and dried via tapping. 200 μl of blocking solution was added to each well followed by incubating at 4° C. overnight. The plate was washed 3 times with washing solution, and the coated plate may be stored at −20° C. or 4° C. for future use.
The antibodies to be tested, positive control antibody AV380-mIgG1 and blank control (PBS) were added to the wells. […] At the same time, GDF15-mFC protein (GDF15: Genbank accession number NM_004864.3; mFC: Genbank accession number AAH31470.1) was added at 20 ng/well and mixed with the antibodies to be tested. The wells were incubated at 37° C. for 1 hour, washed, and dried via tapping. Then the enzyme-labeled secondary antibody, horseradish peroxidase-labeled goat anti-mouse IgG (SIGMA, catalog number A9044-2 ml) was added to each well, at a dilution of 1:10000, 50-100 μl/well. The wells were incubated at 37° C. for 2 hours, washed, and dried via tapping. 100 μl of freshly prepared developing solution TMB was added to each well and incubated at 37° C. for 30 minutes. 2 mol/L H₂SO₄ was added to terminate the reaction, and the OD value was obtained on an enzyme-linked immunosorbent reader.
(§2) The experiment was performed as detailed in Example 4, except that the antibodies to be tested (the humanized antibodies), negative control antibody (hIgG1), and positive control antibodies Ponsegromab and AV380-hIgG1 were added to each well of the coated plate.

[3] = molecular target: T1, GDF15-HIS (ACROBiosystems, CAT #: …); assay: ELISA in stability test, antibody after 5 freeze-thaw cycles; coated antigen not named
Description: An appropriate amount of each antibody was taken and adjusted to 10 mg/mL, followed by freezing at −80° C. for 10 min, and placing in an ice-water mixture to slowly thaw. The above procedure was repeated 5 times. Protein aggregation was detected using SEC-HPLC, and protein binding activity change was detected by ELISA.

[4] = molecular target: T1, GDF15-HIS (ACROBiosystems, CAT #: …); assay: ELISA in stability test, antibody before treatment; coated antigen not named
[5] = molecular target: T1, GDF15-HIS (ACROBiosystems, CAT #: …); assay: ELISA, GDF15-HIS coated
Description: The experiment was performed as detailed in Example 2, except that the coating protein was GDF15-HIS (ACROBiosystems, CAT #: GD5-H5149), and the antibodies to be tested (the humanized antibodies), negative control antibody (hIgG1), positive control antibodies Ponsegromab (Pfizer; Drug Bank: D11909) and AV380-hlgG1 (the heavy chain and light chain constant regions of AV380-mIgG1 were replaced with the constant regions of human IgG, i.e., SEQ ID NO. 5 and SEQ ID NO. 6) were added to each well of the coated plate.

[6] = molecular target: T1, GDF15-HIS (ACROBiosystems, CAT #: …); assay: ELISA on human GDF15, antibody after 2 weeks at 37 °C in PBS
Description: (§3) […] of the antibodies to be tested (final concentration 1 mg/ml) were added to 200 μl of plasma and PBS, respectively, tightly sealed and placed at 37° C. for 2 weeks. The change of protein binding activity was detected by ELISA.

[7] = molecular target: T1, GDF15-HIS (ACROBiosystems, CAT #: …); assay: ELISA in stability test, antibody after 40 °C for 1 week; coated antigen not named
Description: as §1

[8] = molecular target: T1, GDF15-HIS (ACROBiosystems, CAT #: …); assay: ELISA on human GDF15, antibody after 2 weeks at 37 °C in plasma
Description: as §3

[9] = molecular target: T1, GDF15-HIS (ACROBiosystems, CAT #: …); assay: BLI (ForteBio Octet), antibody immobilised, GDF15 200-6.25 nM
[10] = molecular target: T1, GDF15-HIS (ACROBiosystems, CAT #: …); assay: ELISA in stability test, antibody after pH 3.6 for 2-4 h; coated antigen not named
Description: An appropriate amount of each antibody was taken and adjusted to 5 mg/mL in storage buffer adjusted to pH 3.6 using an ultrafiltration tube. The antibodies were placed at room temperature for 2-4 hours, then protein aggregation was detected using SEC-HPLC, and protein binding activity change was detected by ELISA.

cynoGDF15-mFC = molecular target: T3, cynoGDF15-mFC; assay: ELISA, cynoGDF15-mFC coated
Description: as §2, with “2,” for “4,”, “that the coating protein was cynoGDF15-mFC (GDF15: Genbank accession number EHH29815.1; mFC: Genbank accession number AAH31470.1), and” for “that”

[11] = molecular target: T1, GDF15-HIS (ACROBiosystems, CAT #: …); assay: cell-based or functional assay
GDF15-mFC protein [12] = molecular target: T2, GDF15-mFC protein; assay: competitive ELISA, GFRAL-HIS coated (competitor), GDF15-mFc 0.3 µg/ml pre-incubated with antibody
Description: GFRAL-HIS protein (ACROBiosystems, GFA-H52H3) was dissolved in PBS at a concentration of […] and was used to coat ELISA 96-well plate one day before blocking the plate with 2% BSA in PBS. 53E5 (hz), and control antibodies Ponsegromab and AV380-hIgG1 were 3.16-fold diluted for 10 gradients with a starting concentration of 20 μg/ml. At the same time, GDF15-mFc protein was added at a final concentration of 0.3 μg/ml. After incubation at room temperature for 1 hour, the mixtures were added to 96-well plate coated with GFRAL-HIS. After incubated at room temperature for 1 hour, the plate was washed and then HRP-anti-mouse IgG was added to the plate. After incubation at room temperature for 1 hour, the HRP enzyme activity (OD450) was detected. The HRP enzyme activity represents the relative amount of GDF15-mFc protein bound to GFRAL. The OD450 values and antibody concentrations were plotted. The dose-effect curve was fitted using the log (agonist) vs. response-variable slope (four-parameter) Logistic model to calculate IC50.

Row | EC50 [1] | IC50 (GDF15-mFC protein [2]) | OD450.Max (GDF15-mFC protein [2]) | EC50 [3] | EC50 [4] | EC50 [5] | OD450.Max [5] | EC50 [6] | EC50 [7] | EC50 [8] | Kd [9] | koff [9] | kon [9] | EC50 [10] | EC50 (cynoGDF15-mFC) | OD450.Max (cynoGDF15-mFC) | Bottom (luciferase activity fold, fitted curve), HEK293 SRE-LUC2-cRET-GFRAL reporter cells [11] | IC50, luciferase in HEK293 SRE-LUC2-cRET-GFRAL reporter cells stimulated with GDF15-His 5 ng/ml [11] | IC50 (GDF15-mFC protein [12]) | Binder
1 | 0.0296 µg/mL | 0.283 µg/mL | 1.1 OD450 | 0.0673 µg/mL | 0.0412 µg/mL | 0.0827 µg/mL | 1.05 OD450 | 0.113 µg/mL | 0.0643 µg/mL | 0.0413 µg/mL | 266 pM | 0.000257 s⁻¹ | 967000 M⁻¹ s⁻¹ | 0.0691 µg/mL | 0.0775 µg/mL | 1.03 OD450 |  |  |  | 53A8(hz) (antibody, human IgG1, kappa, V domains shown, also called humanized antibody 53A8) VH: QVQLQESGPGLVKPSETLSLTCTFSGFSLSTSGMGVGWIRQPPGKGLEWLAHIRWDDVKRYNPALKSRLTISKDTSKSQISLKLSSVTAADTAVYYCAQMAWDWFAYWGQGTTVTVSS VL: DIQMTQSPSSLSASVGDRVTITCKASQNVDTDVAWYQQKPGQSPKALIYSASYRYSGVPSRFSGSGSGTDFTLTISSLQPEDFATYYCHQYNSYPTFGQGTRLEIKR
2 |  | 0.231 µg/mL |  |  |  | 0.0823 µg/mL | 1.07 OD450 |  |  |  | 84.5 pM | 6.91e-05 s⁻¹ | 817000 M⁻¹ s⁻¹ |  | 0.0741 µg/mL | 1 OD450 | 1.03 | 0.0447 µg/mL | 0.231 µg/mL | AV380-hIgG1 (antibody, also called AV380-hlgG1) heavy: not shown light: DIQMTQSPASLSASVGETVTITCRTSENLHNYLAWYQQKQGKSPQLLVYDAKTLADGVPSRFSGSGSGTQYSLKINSLQPEDFGSYYCQHFWSSPYTFGGGTKLEIKRTVAAPSVFIFPPSDEQLKSGTASVVCLLNNFYPREAKVQWKVDNALQSGNSQESVTEQDSKDSTYSLSSTLTLSKADYEKHKVYACEVTHQGLSSPVTKSFNRGEC
